These results are taken from publication PMC10954479 (Nucleic Acids Research, 2024).

Positions count from the first letter of the chain named. Numbers in names are those of the source.

First the molecules themselves.
B1: 28 bp EMSA DNA (dsDNA)
DNA 1: GGGAAAGTTTCTATTATTAGCAGAGATA
DNA 2: TATCTCTGCTAATAATAGAAACTTTCCC
B2: human HDAC4 glutamine-rich domain (HDAC4GRD, residues 62–192), wild type (domain or fragment)
chain: AEPALREQQLQQELLALKQKQQIQRQILIAEFQRQHEQLSRQHEAQLHEHIKQQQEMLAMKHQQELLEHQRKLERHRQEQELEKQHREQKLQQLKNKEKGKESAVASTEVKMKLQEFVLNKKKALAHRNLN
B3: human MEF2A MADS-box/MEF2s domain (residues 1–95) (domain or fragment)
chain: MGRKKIQITRIMDERNRQVTFTKRKFGLMKKAYELSVLCDCEIALIIFNSSNKLFQYASTDMDKVLLKYTEYNEPHESRTNSDIVEALNKKEHRG
B4: HDAC4GRD (residues 62–192) H109D mutant (domain or fragment)
chain: B2 chain with H48D
B5: 15 bp crystallization DNA (dsDNA)
DNA 1: AAACTATTTATAAGA
DNA 2: TCTTATAAATAGTTT
B6: Site-2 DNA (dsDNA)
DNA 1: CTAAGCAAATGAGATGAATATGCAGGGCACCATGCTAAAAATAAAATGGTTTCATGGTGCTAGTGAGGAAGGAA
DNA 2: TTCCTTCCTCACTAGCACCATGAAACCATTTTATTTTTAGCATGGTGCCCTGCATATTCATCTCATTTGCTTAG
B7: Site-1 DNA (dsDNA)
DNA 1: GGGAAAGTTTCTATTATTAGCAGAGATA
DNA 2: TATCTCTGCTAATAATAGAAACTTTCCC

Data set [1] has as its target T1, MEF2A1-95;HDAC4GRD H109D (Homo sapiens;Homo sapiens, UniProt Q02078;P56524 1-95;62-192, |H109D). Briefly: EMSA. On the technique in general: In EMSA bound probe runs differently from free probe, usually more slowly.
In data set [2] the target is MEF2A1-95;HDAC4GRD F93D (Homo sapiens;Homo sapiens, UniProt Q02078;P56524 1-95;62-192, |F93D). Briefly: EMSA.
Data set [3] addresses T2, MEF2A1-95;HDAC4GRD WT (Homo sapiens;Homo sapiens, UniProt Q02078;P56524 1-95;62-192, |). Description: EMSA.
Data set [4] deals with the molecule itself. Description: crystal structure.
Data set [5] concerns the target B4. Briefly: native gel or EMSA.
The target of data set [6] is T3, HDAC4GRD (residues 62–192) F93D mutant (human, UniProt P56524 62-192, F93D).
T3 sequence: B2 chain with F32D
Briefly: native gel or EMSA.

Data set [7] concerns the molecule itself. Briefly: SEC. (In gel filtration, larger molecules generally elute earlier.)
Data set [8] deals with T2, MEF2A1-95;HDAC4GRD WT. Briefly: X-ray crystallography.
Data set [9] has as its target T1, MEF2A1-95;HDAC4GRD H109D. Description: pull-down.
For data set [10], the target named is T2, MEF2A1-95;HDAC4GRD WT. Briefly: pull-down.
Data set [11] concerns the target T2, MEF2A1-95;HDAC4GRD WT. Description: pull-down. The source holds these as a separate data set.

On to B1, for which the binding result in data set [1], in [2] and in data set [3] was “binds” each time.

As for B2, the “stoichiometry N” value in data set [4] was found to be 2.

In the case of B3, the binding result in data set [5] and in [6] was “binds” each time. For the same molecule, the “stoichiometry N” value in [4] amounted to 2.

Regarding B4, in data set [7], the binding result was “binds”.

For B5, the binding result in [8] is on record as “binds”.

B6: the binding result in [9] and in data set [10] was “binds” in each case.

Consider B7, for which, in data set [11], the binding result is “binds”.

As a reminder, the stoichiometry N is a count of units in the complex or per binding partner.
